Tests used:
[1] = target: T1, CLK2 peptide RRRRRRSRTFSR (SEQ ID NO:177) (not fully specified)
T1 chain: RRRRRRSRTFSR

[2] = target: T2, supervillin peptide VMKRKFSLRAAE (SEQ ID NO:202) (not fully specified)
T2 chain: VMKRKFSLRAAE

[3] = target: T3, CLK3 peptide RWKRRRSYSREH (SEQ ID NO:196) (not fully specified)
T3 chain: RWKRRRSYSREH

[4] = target: T4, forkhead (Drosophila)-like 16 peptide RRERSRSRRKQ (SEQ ID NO:176) (not fully specified)
T4 chain: RRERSRSRRKQ

[5] = target: T5, MAST3 peptide TQDRRKSLFKKI (SEQ ID NO:201) (not fully specified)
T5 chain: TQDRRKSLFKKI

[6] = target: T6, PSCDBP peptide FLRRSSSRRNRS (SEQ ID NO:180) (not fully specified)
T6 chain: FLRRSSSRRNRS

[7] = target: T7, DAP-kinase 1 peptide KKRRTKSSRRGV (SEQ ID NO:175) (not fully specified)
T7 chain: KKRRTKSSRRGV

[8] = target: T8, Lyp peptide ILRPSKSVKLRS (SEQ ID NO:197) (not fully specified)
T8 chain: ILRPSKSVKLRS

[9] = target: T9, MAST4 peptide VRRSKKSKKKES (SEQ ID NO:203) (not fully specified)
T9 chain: VRRSKKSKKKES

[10] = target: T10, SHP-1 peptide DKEKSKGSLKRK (SEQ ID NO:209) (not fully specified)
T10 chain: DKEKSKGSLKRK

[11] = target: T11, BTK peptide PGSSHRKTKK (SEQ ID NO:195) (not fully specified)
T11 chain: PGSSHRKTKK

[12] = target: T12, CLK2 peptide RRRRSRTFSRS (SEQ ID NO:178) (not fully specified)
T12 chain: RRRRSRTFSRS

[13] = target: T13, CDC2L5 peptide SRRRSPSYSRHS (SEQ ID NO:214) (not fully specified)
T13 chain: SRRRSPSYSRHS

[14] = target: T14, BRCA1 peptide LRRKSSTRHIHA (SEQ ID NO:187) (not fully specified)
T14 chain: LRRKSSTRHIHA

[15] = target: T15, FLJ20719 peptide RRGRRSTKKRRR (SEQ ID NO:171) (not fully specified)
T15 chain: RRGRRSTKKRRR

[16] = target: T16, WNK1 peptide RRRRHTMDKDSR (SEQ ID NO:190) (not fully specified)
T16 chain: RRRRHTMDKDSR

[17] = target: T17, BCL10 peptide SCRTSSRKRAGK (SEQ ID NO:216) (not fully specified)
T17 chain: SCRTSSRKRAGK

[18] = target: T18, casein kinase I gamma 2 peptide KRRKRKSLQRHK (SEQ ID NO:194) (not fully specified)
T18 chain: KRRKRKSLQRHK

[19] = target: T19, CHD1 peptide EGRRSRSRRYSG (SEQ ID NO:205) (not fully specified)
T19 chain: EGRRSRSRRYSG

[20] = target: T20, myosin IF peptide KKERRRNSINRN (SEQ ID NO:174) (not fully specified)
T20 chain: KKERRRNSINRN

[21] = target: T21, WNK1 peptide KRHYRKSVRSRS (SEQ ID NO:179) (not fully specified)
T21 chain: KRHYRKSVRSRS

[22] = target: T22, NPAT peptide FRASSRSTTK (SEQ ID NO:184) (not fully specified)
T22 chain: FRASSRSTTK

[23] = target: T23, S1P1 receptor peptide RTRSRRLTFRK (SEQ ID NO:169) (not fully specified)
T23 chain: RTRSRRLTFRK

[24] = target: T24, absent in melanoma 1 peptide RSGRRRGSQKS (SEQ ID NO:173) (not fully specified)
T24 chain: RSGRRRGSQKS

[25] = target: T25, nucleolar phosphoprotein p130 peptide TKKKRGSYRGGS (SEQ ID NO:182) (not fully specified)
T25 chain: TKKKRGSYRGGS

[26] = target: T26, ARHGAP4 peptide PLRKSSLKKGGR (SEQ ID NO:193) (not fully specified)
T26 chain: PLRKSSLKKGGR

[27] = target: T27, DOCK2 peptide VKLRRSKKRTKR (SEQ ID NO:170) (not fully specified)
T27 chain: VKLRRSKKRTKR

[28] = target: T28, beta-arrestin2 peptide HKRNSVRLVIR (SEQ ID NO:191) (not fully specified)
T28 chain: HKRNSVRLVIR

[29] = target: T29, WNK1 peptide RRRRPTKSKGSK (SEQ ID NO:198) (not fully specified)
T29 chain: RRRRPTKSKGSK

[30] = target: T30, prostaglandin E receptor 4 peptide DFRRRRSFRRIA (SEQ ID NO:186) (not fully specified)
T30 chain: DFRRRRSFRRIA

[31] = target: T31, BTK peptide ERGRRGSKKGSI (SEQ ID NO:188) (not fully specified)
T31 chain: ERGRRGSKKGSI

[32] = target: T32, HePTP peptide EQQRRALSFRQ (SEQ ID NO:200) (not fully specified)
T32 chain: EQQRRALSFRQ

[33] = target: T33, MAST3 peptide ARRSKRSRRRET (SEQ ID NO:183) (not fully specified)
T33 chain: ARRSKRSRRRET

[34] = target: T34, serine/threonine-protein kinase PRP4 peptide GRRRRSRSKVK (SEQ ID NO:189) (not fully specified)
T34 chain: GRRRRSRSKVK

[35] = target: T35, CDC2L5 peptide RHSRSRSRHRLS (SEQ ID NO:213) (not fully specified)
T35 chain: RHSRSRSRHRLS

[36] = target: T36, TIAM1 peptide AMSRSASKRRSR (SEQ ID NO:168) (not fully specified)
T36 chain: AMSRSASKRRSR

[37] = target: T37, peptide EEAEHKATKARLADK (SEQ ID NO:75) (not fully specified)
T37 chain: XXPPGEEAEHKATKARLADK

B1: PKC-theta (protein)
chain: MSPFLRIGLSNFDCGSCQSCQGEAVNPYCAVLVKEYVESENGQMYIQKKPTMYPPWDSTFDAHINKGRVMQIIVKGKNVDLISETTVELYSLAERCRKNNGKTEIWLELKPQGRMLMNARYFLEMSDTKDMNEFETEGFFALHQRRGAIKQAKVHHVKCHEFTATFFPQPTFCSVCHEFVWGLNKQGYQCRQCNAAIHKKCIDKVIAKCTGSAINSRETMFHKERFKIDMPHRFKVYNYKSPTFCEHCGTLLWGLARQGLKCDACGMNVHHRCQTKVANLCGINQKLMAEALAMIESTQQARCLRDTEQIFREGPVEIGLPCSIKNEARPPCLPTPGKREPQGISWESPLDEVDKMCHLPEPELNKERPSLQIKLKIEDFILHKMLGKGSFGKVFLAEFKKTNQFFAIKALKKDVVLMDDDVECTMVEKRVLSLAWEHPFLTHMFCTFQTKENLFFVMEYLNGGDLMYHIQSCHKFDLSRATFYAAEIILGLQFLHSKGIVYRDLKLDNILLDKDGHIKIADFGMCKENMLGDAKTNTFCGTPDYIAPEILLGQKYNHSVDWWSFGVLLYEMLIGQSPFHGQDEEELFHSIRMDNPFYPRWLEKEAKDLLVKLFVREPEKRLGVRGDIRQHPLFREINWEELERKEIDPPFRPKVKSPFDCSNFDKEFLNEKPRLSFADRALINSMDQNMFRNFSFMNPGMERLIS
- in vitro phosphorylation (% of best substrate) [1]: 66
- in vitro phosphorylation (% of best substrate) [2]: 24
- in vitro phosphorylation (% of best substrate) [3]: 32
- in vitro phosphorylation (% of best substrate) [4]: 66
- in vitro phosphorylation (% of best substrate) [5]: 25
- in vitro phosphorylation (% of best substrate) [6]: 65
- in vitro phosphorylation (% of best substrate) [7]: 80
- in vitro phosphorylation (% of best substrate) [8]: 32
- in vitro phosphorylation (% of best substrate) [9]: 24
- in vitro phosphorylation (% of best substrate) [10]: 17
- in vitro phosphorylation (% of best substrate) [11]: 33
- in vitro phosphorylation (% of best substrate) [12]: 65
- in vitro phosphorylation (% of best substrate) [13]: 13
- in vitro phosphorylation (% of best substrate) [14]: 48
- in vitro phosphorylation (% of best substrate) [15]: 92
- in vitro phosphorylation (% of best substrate) [16]: 40
- in vitro phosphorylation (% of best substrate) [17]: 11
- in vitro phosphorylation (% of best substrate) [18]: 34
- in vitro phosphorylation (% of best substrate) [19]: 22
- in vitro phosphorylation (% of best substrate) [20]: 83
- in vitro phosphorylation (% of best substrate) [21]: 65
- in vitro phosphorylation (% of best substrate) [22]: 54
- in vitro phosphorylation (% of best substrate) [23]: 100
- in vitro phosphorylation (% of best substrate) [24]: 85
- in vitro phosphorylation (% of best substrate) [25]: 61
- in vitro phosphorylation (% of best substrate) [26]: 35
- in vitro phosphorylation (% of best substrate) [27]: 98
- in vitro phosphorylation (% of best substrate) [28]: 38
- in vitro phosphorylation (% of best substrate) [29]: 28
- in vitro phosphorylation (% of best substrate) [30]: 50
- in vitro phosphorylation (% of best substrate) [31]: 44
- in vitro phosphorylation (% of best substrate) [32]: 26
- in vitro phosphorylation (% of best substrate) [33]: 55
- in vitro phosphorylation (% of best substrate) [34]: 43
- in vitro phosphorylation (% of best substrate) [35]: 13
- in vitro phosphorylation (% of best substrate) [36]: 100
- Peptide phosphorylation by PKC-theta [37]: 0

— patent US20050064507
